Results reported in patent US11015206B2, “Compositions and methods comprising sequences having hydroxyphenylpyruvate dioxygenase (HPPD) activity” (PIONEER HI-BRED INTERNATIONAL, INC., priority 2014, dated 2021).
Substitutions are numbered along the chain they refer to. Values belong to the molecule of their own block, whether it stands above or below them.

Experiments:
Type in all cases: biochemical, Z. mays
[1] = test system: 4-hydroxyphenylpyruvate dioxygenase (HPPD); test: Insensitivity parameter (ON × OFF) and trait fitness (ON × OFF × kcat/KM or × kcat); design: key to ON × OFF / Insensitivity, mesotrione, ON × OFF / Insensitivity, tembotrione, ON × OFF / Insensitivity, topramezone, ON × OFF / Insensitivity, sulcotrione, ON × OFF / Insensitivity, isoxaflutole (DKN), ON × OFF: insensitivity = ON rate ratio × OFF rate ratio (surrogate for KD); settings: for ON × OFF (product of ON ratio and OFF ratio) / ON × OFF kcat (product of ON ratio, OFF ratio and kcat) / Fold vs. wt (ON × OFF versus wild-type SEQ ID NO:1) / Fold vs. wt (ON × OFF × kcat versus wild-type SEQ ID NO:1): Megatable 2; for Fold vs. wt (ON × OFF versus wild-type SEQ ID NO:1): fold of ON × OFF; for Fold vs. wt (ON × OFF × kcat versus wild-type SEQ ID NO:1): fold of ON × OFF × kcat
Outline: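 Trait fitness combines catalysis and insensitivity as kcat/KM × ON rate ratio × OFF rate ratio. The insensitivity parameter is the product of ON and OFF rate ratios, used in place of KD because the ON rate ratio is inverse.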

[2] = test system: 4-hydroxyphenylpyruvate dioxygenase (HPPD); test: OFF rate ratio: release of inhibitor from pre-formed enzyme-inhibitor complex; settings: for OFF Rat. (OFF ratio parameter): Megatable 2; for OFF rate ratio: Table 7, tembotrione, combinatorial variants
Outline: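 Inhibitor release from pre-formed complex (enzyme 7.2 μM, inhibitor 8 μM, 1 h RT) tracked as accelerating HPPD activity at 320 nm over 12 min, coupled via 50 nM HGD with 100 μM HPP at pH 7. OFF rate ratio: steady-state velocity relative to uninhibited initial velocity.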

[3] = test system: 4-hydroxyphenylpyruvate dioxygenase (HPPD); test: ON rate ratio: HPPD reaction rate with vs without inhibitor in the 70 to 90 second interval; settings: for ON Rat. (ON ratio parameter): Megatable 2; for ON rate ratio: Table 7, tembotrione, combinatorial variants
Outline: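 Indicator of inhibitor on-rate: reaction velocity in the 70 to 90 second window with 4 μM inhibitor divided by that without. Reactions contained 100 μM HPP and 60 or 120 nM HPPD; slower binding gives a larger ratio.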

[4] = test system: 4-hydroxyphenylpyruvate dioxygenase (HPPD); test: Estimate of kcat from initial rate at saturating hydroxyphenylpyruvate without inhibitor (ON rate ratio assay)
Outline: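 kcat was estimated from the initial reaction rate with known enzyme level (60 or 120 nM HPPD). Hydroxyphenylpyruvate was at a saturating 100 μM, with no inhibitor present.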

[5] = Megatable 2, single substitutions, positions numbered per SEQ ID NO:1
[6] = Table 7, tembotrione, combinatorial variants
[7] = Table 7, combinatorial variants

ON × OFF (product of ON ratio and OFF ratio) [1]: 0.0051
Fold vs. wt (ON × OFF versus wild-type SEQ ID NO:1) [1]: 1.00
OFF Rat. (OFF ratio parameter) [2]: 0.03
ON Rat. (ON ratio parameter) [3]: 0.17
B1: SEQ ID NO 1 (protein)
chain: MGPTPTAAAAGAAVAAASAAEQAAFRLVGHRNFVRFNPRSDRFHTLAFHHVELWCADAASAAGRFSFGLGAPLAARSDLSTGNSAHASLLLRSGSLSFLFTAPYAHGADAATAALPSFSAAAARRFAADHGLAVRAVALRVADAEDAFRASVAAGARPAFGPVDLGRGFRLAEVELYGDVVLRYVSYPDGAAGEPFLPGFEGVASPGAADYGLSRFDHIVGNVPELAPAAAYFAGFTGFHEFAEFTTEDVGTAESGLNSMVLANNSENVLLPLNEPVHGTKRRSQIQTFLDHHGGPGVQHMALASDDVLRTLREMQARSAMGGFEFMAPPTSDYYDGVRRRAGDVLTEAQIKECQELGVLVDRDDQGVLLQIFTKPVGDRPTLFLEIIQRIGCMEKDEKGQEYQKGGCGGFGKGNFSQLFKSIEDYEKSLEAKQAAAAAAAQGS
modifications: Zea mays
ON × OFF kcat (product of ON ratio, OFF ratio and kcat) [1]: 1.07
Fold vs. wt (ON × OFF × kcat versus wild-type SEQ ID NO:1) [1]: 1.00
kcat [4, 5]: 3.5 s⁻¹

ON × OFF ([1]; Megatable 3, shuffled variants): 0.279
ON × OFF [1, 6]: 0.279
OFF rate ratio [2]: 0.379
ON rate ratio [3]: 0.737
B3: P056028-G-08 (protein)
chain: MGPTPTATAAGAAVAAASAAEQAAFRLVGHRNFVRFNPRSDRFQTLAFHHVELWCADAASAAGRFSFALGVPLAARSDLSTGNSAHASLLLRSGSLSLLFTAPYAHGADAATAALPSFSAAAARRFAADHGLAVRAVALRVADAEDAFRASVAAGARPAFGPVDLGRGFRLAEVELYGDVVLRYVSYPDGAAGEPFLPGFEGVASPGAADLGLSRFDHIVGNVPELAPAAAYMAGFTGFHEFAEFTTEDVGTTESGLNSMALANNSENVLLPLNEPVHGTKRRSQIQTFLDHHGGPGVQHIALASDDVLRTLREMRARSAMGGFEFLPPPLSDYYDGVRKCAGDVLTEAQINECQKLGVMVDRDDEGVLLQIFTKPVGDRPTFFLEIIQRIGCMEKDEKGQEYQKGGCGGFGKGNFGQLFKSIEDYEKSLEAKQAAAAATAQGS
modifications: Zea mays variant form created by artificial means.
ON × OFF × kcat ([1]; Megatable 3, shuffled variants): 3.29
ON × OFF × kcat [1, 6]: 3.29
kcat ([4]; Megatable 3, shuffled variants): 0.197 s⁻¹
kcat [4, 7]: 0.197 s⁻¹

ON × OFF (product of ON ratio and OFF ratio) [1]: 0.15
Fold vs. wt (ON × OFF versus wild-type SEQ ID NO:1) [1]: 30.0
OFF Rat. (OFF ratio parameter) [2]: 0.21
ON Rat. (ON ratio parameter) [3]: 0.74
B5: SEQ ID NO 2 (protein)
chain: B3 chain with L211Y, K340R, K356E, E366Q
modifications: Zea mays variant form created by artificial means.
ON × OFF kcat (product of ON ratio, OFF ratio and kcat) [1]: 5.25
Fold vs. wt (ON × OFF × kcat versus wild-type SEQ ID NO:1) [1]: 4.90
kcat [4, 5]: 0.57 s⁻¹

ON × OFF ([1]; Megatable 3, shuffled variants): 0.275
ON × OFF [1, 6]: 0.275
OFF rate ratio [2]: 0.385
ON rate ratio [3]: 0.716
B7: P056028-G-09 (protein)
chain: B3 chain with P158K, L211Y, K340R, K356E, M394V
modifications: Zea mays variant form created by artificial means.
ON × OFF × kcat ([1]; Megatable 3, shuffled variants): 4.37
ON × OFF × kcat [1, 6]: 4.37
kcat ([4]; Megatable 3, shuffled variants): 0.263 s⁻¹
kcat [4, 7]: 0.263 s⁻¹

The remaining lines, values behind:

B2: P056028-G-05 (protein)
chain: B3 chain with A191G, P206Q, S214N, K356E, L385I, G417Q, Q434R
modifications: Zea mays variant form created by artificial means.
ON × OFF ([1]; Megatable 3, shuffled variants): 0.267
ON × OFF × kcat ([1]; Megatable 3, shuffled variants): 4.47
ON × OFF [1, 6]: 0.267
ON × OFF × kcat [1, 6]: 4.47
OFF rate ratio [2]: 0.361
ON rate ratio [3]: 0.739
kcat ([4]; Megatable 3, shuffled variants): 0.278 s⁻¹
kcat [4, 7]: 0.278 s⁻¹

B4: P056028-G-06 (protein)
chain: B3 chain with L182M, P206Q, L211Y, S214N, K356E, I387L
modifications: Zea mays variant form created by artificial means.
ON × OFF ([1]; Megatable 3, shuffled variants): 0.277
ON × OFF × kcat ([1]; Megatable 3, shuffled variants): 3.30
ON × OFF [1, 6]: 0.277
ON × OFF × kcat [1, 6]: 3.30
OFF rate ratio [2]: 0.382
ON rate ratio [3]: 0.725
kcat ([4]; Megatable 3, shuffled variants): 0.2 s⁻¹
kcat [4, 7]: 0.2 s⁻¹

B6: P056028-G-07 (protein)
chain: B3 chain with P206Q, L211Y, K356R
modifications: Zea mays variant form created by artificial means.
ON × OFF ([1]; Megatable 3, shuffled variants): 0.213
ON × OFF × kcat ([1]; Megatable 3, shuffled variants): 3.23
ON × OFF [1, 6]: 0.213
ON × OFF × kcat [1, 6]: 3.23
OFF rate ratio [2]: 0.304
ON rate ratio [3]: 0.702
kcat ([4]; Megatable 3, shuffled variants): 0.255 s⁻¹
kcat [4, 7]: 0.255 s⁻¹
